Molecular target: the molecule itself
Assay: crystal structure

B1: human NAPE-hydrolyzing phospholipase D (NAPE-PLD), truncated form Δ47 (D47 to F393) (enzyme, UniProt Q6IQ20 47-393, looked up)
chain: DYRLEEDVTKSKKGKDGRFVNPWPTWKNPSIPNVLRWLIMEKDHSSVPSSKEELDKELPVLKPYFITNPEEAGVREAGLRVTWLGHATVMVEMDELIFLTDPIFSSRASPSQYMGPKRFRRSPCTISELPPIDAVLISHNHYDHLDYNSVIALNERFGNELRWFVPLGLLDWMQKCGCENVIELDWWEENCVPGHDKVTFVFTPSQHWCKRTLMDDNKVLWGSWSVLGPWNRFFFAGDTGYCPAFEEIGKRFGPFDLAAIPIGAYEPRWFMKYQHVDPEEAVRIHTDVQTKKSMAIHWGTFALANEHYLEPPVKLNEALERYGLNAEDFFVLKHGESRYLNNDDENF
stoichiometry N: 2
